From patent US20030175278A1 (published 2003)

Target: T1, PS2-COOH terminus Y2H bait (PS2 COOH-terminal 39 amino acids, K410-I448) (human)
T1 construct: also called PS2-COOH-terminal bait; not shown: the LexA fusion partner of the bait and any linker
Assay: Y2H β-galactosidase liquid culture assay (ONPG)
Protocol: The yeast two-hybrid (Y2H) procedure that utilizes the LexA/transactivation system was performed, as described previously (Stabler, et al. 1999). The PS2 COOH-terminal 39-amino acids (residues […]) (see FIG. 1a and FIG. b) were used as bait to screen a human fetal brain cDNA library. Out of 10⁷ primary yeast transformants, 50 clones were selected for further analysis based on growth in the absence of leucine and a substantial blue color change when grown on 5-bromo-4-chloro-3-indolyl-β-D-galactopyranoside (X-gal) plates. False positives were subsequently eliminated based on their interactions with negative-control baits, such as LexA alone, nuclear lamin B, and CENP-C centromere protein. Plasmid DNAs were isolated from clones that fulfilled the above requirements, and the DNA sequences of their inserts were determined and compared with the GenBank/EMBL/DDBJ databases using the BLAST search program. […] Interaction of ubiquilin proteins with various PS1 and PS2 baits were quantified in liquid culture assays by the enzymatic conversion of o-nitrophenyl-β-D-galactopyranoside (ONPG) to o-nitrophenol and D-galactose by β-galactosidase enzyme encoded by an Y2H reporter plasmid.
Interaction between ubiquilin and the presenilins was quantified in Y2H β-galactosidase liquid culture assays. […]

T1 sequence (chain, as listed by the source limits assumed): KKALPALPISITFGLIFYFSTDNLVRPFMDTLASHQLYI

B1: near full-length ubiquilin-prey clone (FIG. 2 III, construct H without GST), M37-S595 (other, not shown: large carriers)
chain: MKVTVKTPKEKEEFAVPENSSVQQFKEEISKRFKSHTDQLVLIFAGKILKDQDTLSQHGIHDGLTVHLVIKTQNRPQDHSAQQTNTAGTNVTTSSTPNSNSTSGSATSNPFGLGGLGGLAGLSSLGLNTTNFSELQSQMQRQLLSNPEMMVQIMENPFVQSMLSNPDLMRQLIMANPQMQQLIQRNPEISHMLNNPDIMRQTLELARNPAMMQEMMRNQDRALSNLESIPGGYNALRRMYTDIQEPMLSAAQEQFGGNPFASLVSNTSSGEGSQPSRTENRDPLPNPWAPQTSQSSSASSGTASTVGGTTGSTASGTSGQSTTAPNLVPGVGASMFNTPGMQSLLQQITENPQLMQNMLSAPYMRSMMQSLSQNPDLAAQMMLNNPLFAGNPQLQEQMRQQLPTFLQQMQNPDTLSAMSNPRAMQALLQIQQGLQTLATEAPGLIPGFTPGLGALGSTGGSSGTNGSNATPSENTSPTAGTTEPGHQQFIQQMLQALAGVNPQLQNPEVRFQQQLEQLSAMGFLNREANLQALIATGGDINAAIERLLGSQHHSSISVS
notes: also called near full-length clone (encoding residues 37-595); the longer ubiquilin clone
B1 was tested, and the “fold β-galactosidase activity compared with negative-control baits” value was greater than 55 fold.

B2: ubiquilin-prey clone (FIG. 2 III, construct B without GST), Q378-S595 (other, not shown: large carriers)
chain: QSLLQQITENPQLMQNMLSAPYMRSMMQSLSQNPDLAAQMMLNNPLFAGNPQLQEQMRQQLPTFLQQMQNPDTLSAMSNPRAMQALLQIQQGLQTLATEAPGLIPGFTPGLGALGSTGGSSGTNGSNATPSENTSPTAGTTEPGHQQFIQQMLQALAGVNPQLQNPEVRFQQQLEQLSAMGFLNREANLQALIATGGDINAAIERLLGSQHHSSISVS
notes: also called partial ubiquilin clone (encoding the COOH-terminal 218 residues)
B2 was tested, and the “fold β-galactosidase activity compared with negative-control baits” value was greater than 55 fold.
